# Read-outs that look alike come from different tables or passages of the source.
# Assays:
# Assay in all cases: crystal structure
# [1] = target: His-ICP0 (HSV-1 strain KOS infected cell protein 0, residues A636-Q776) (herpes simplex virus 1 (HSV-1), strain KOS)
# [2] = target: His-ICP0 (HSV-1 strain KOS infected cell protein 0, residues A636-Q776) (herpes simplex virus 1 (HSV-1), strain KOS); remark: listed apart in the source
# [3] = target: proteolytic fragment of his-ICP0 391-776 (HSV-1 strain KOS) that crystallised (herpes simplex virus 1 (HSV-1), strain KOS)
Substance,stoichiometry N [1],stoichiometry N [2],stoichiometry N [3]
"His-ICP0 (HSV-1 strain KOS infected cell protein 0, residues A636-Q776) (domain or fragment)",2,4,–
proteolytic fragment of his-ICP0 391-776 (HSV-1 strain KOS) that crystallised (domain or fragment),–,–,2
